Source: patent publication US5622933A, “Multiple branch peptide constructions for use against HIV” (priority 1993, dated 1997)
“And” between values parts separate entries of the source, which are not always exact repeats. Identical values can stand only once.

Tests used:
[1] = tested on: C57/BL6 black mice; test: Immunogenicity in mice (serum ELISA for anti-MBPC3 antibody); format: in vivo, mouse
Protocol: The injection route was intraperitoneal. The blood samples were collected by sub-orbital eye punction. The blood samples were left for 1 hour at 37° C., then overnight at 4° C., and the supernatants (serum samples) thus obtained were separated from the pellets. Sera were tested by ELISA, looking for specific anti-MBPC3 antibody.
[…] After saturation with 400 μL of casein (5 g/100 ml), different serum dilutions were added for 2 hours at 37° C. The controls were sera from non-immunized rabbits and mice. After rinsing (5×), 50 μl of 1:5000 of peroxidase-labeled swine anti-rabbit IgG or anti-mouse IgG (Dakopatts, Copenhagen, Denmark) were added for 1 hour at 37° C. After further rinsing (5×), 100 μl of ortho-phenylenediamine were added for 30 min in the dark at room temperature. The reaction was stopped by adding 50 μl of 4N sulfuric acid, and optical density (OD) ratios were determined at 492/620 nm.

[2] = tested on: Peripheral blood lymphocytes (PBL); test: PBL antigen and mitogen induced proliferation ([3H]thymidine incorporation); format: cell-based, human; details: MBPCs 5×10^-6 M
Protocol: Peripheral blood lymphocytes (PBL) from 3 healthy HIV sero-negative donors were isolated from heparinized blood by the Ficoll-Hypaque technique. The culture medium was RPMI 1640 supplemented with 1% glutamine, 1% antibiotics and 10% heat inactivated fetal calf serum. Cells (10^5) were incubated in the presence of MBPCs (5×10^-6 M) with or without antigen (candidine, PPD) or mitogen (PHA). Antigen or mitogen treated cells were pulsed for eight hours with […] of [3H] thymidine. Then cells were harvested and [3H] thymidine incorporation in DNA was counted. […]

[3] = tested on: HIV-1 (LAI); test: Fusion between chronically infected CEM cells and MT-2 cells; format: cell-based; details: separate tests
[4] = tested on: HIV; test: Infection of HT-29 human colon cells through the GalCer receptor; format: cell-based
Protocol: The activity of MBPCs was evaluated on this alternative infection route as follows: HT-29 cells (5×10^5 cells) were incubated with MBPCs (5×10^-6 M) for 45 minutes and subsequently exposed to 100 TCID50 of HIV-1 (LAI), HIV-1 (NDK) or HIV-2 (ROD) for 1 hour at 37° C. The residual inoculum was inactivated by three successive trypsinations and infection was assessed by: i) direct measurement of HIV-1 p24^gag (for HIV-1 isolates) and RT activity (for HIV-1 and HIV-2 isolates) in the culture supernatants; ii) co-cultivation with human PBLs. The cells were treated with the MBPCs as follows: 1- none; 2- [GPGRAF]8 -MLC; 3- [GPGRAF]8 -MLCD; 4- [GPG(R)DAF]8 -MLC; 5- [GPGRAF]16 -MLC; 6- [[…]]4 -MLC; and 7- [[…]]4 -MLC, with all amino acids in L form unless noted otherwise. The results shown in FIG. 5A, which correspond to infection with HIV-1 (NDK), are representative of three separate experiments and the MBPC used is indicated by the number on the x-axis. The concentration of p24^gag (pg/ml) was measured during the co-culture experiment with PBLs (+++, >10 ng/ml 10 days post-infection; ++, >1 ng/ml 13 days post-infection; +, >1 ng/ml 16 days post-infection; -, no detectable p24^gag 1 month post-infection). Similar results were obtained with HIV-1 (LAI) and HIV-2 (ROD).

With (GPGRAF)8 -(K)4 -(K)2 -K-βA-OH [MBPC.3] the “titers of anti-GPGRAF antibodies” value ([1]; mice injected) was “did not produce significant titers”, the “optical density (OD) ratio 492/620 nm (×10^3)” value ([1]; plate 1, mouse serum 10^-2, coat 0.5 μg MBPC.3/ml) was 382 and 381 and the “optical density (OD) ratio 492/620 nm (×10^3)” value ([1]; plate 1, mouse serum 10^-2, coat 1 μg MBPC.3/ml) was 444 and 419. For the same substance, the “optical density (OD) ratio 492/620 nm (×10^3)” value ([1]; plate 1, mouse serum 10^-2, coat 5 μg MBPC.3/ml) was 1045 and 933, the “optical density (OD) ratio 492/620 nm (×10^3)” value ([1]; plate 1, mouse serum 10^-2, coat 10 μg MBPC.3/ml) was 1162 and 1199 and the “optical density (OD) ratio 492/620 nm (×10^3)” value ([1]; plate 1, mouse serum 10^-3, coat 0.5 μg MBPC.3/ml) was 128 and 135. The “optical density (OD) ratio 492/620 nm (×10^3)” value ([1]; plate 1, mouse serum 10^-3, coat 1 μg MBPC.3/ml) was 126 and 111, the “optical density (OD) ratio 492/620 nm (×10^3)” value ([1]; plate 1, mouse serum 10^-3, coat 5 μg MBPC.3/ml) was 285 and 236 and the “optical density (OD) ratio 492/620 nm (×10^3)” value ([1]; plate 1, mouse serum 10^-3, coat 10 μg MBPC.3/ml) was 339 and 291. The “optical density (OD) ratio 492/620 nm (×10^3)” value ([1]; plate 1, mouse serum 10^-4, coat 0.5 μg MBPC.3/ml) was 56 and 38, the “optical density (OD) ratio 492/620 nm (×10^3)” value ([1]; plate 1, mouse serum 10^-4, coat 1 μg MBPC.3/ml) was 50 and 51 and the “optical density (OD) ratio 492/620 nm (×10^3)” value ([1]; plate 1, mouse serum 10^-4, coat 5 μg MBPC.3/ml) was 121 and 132. For the same substance, the “optical density (OD) ratio 492/620 nm (×10^3)” value ([1]; plate 1, mouse serum 10^-4, coat 10 μg MBPC.3/ml) was 172 and 138, the “optical density (OD) ratio 492/620 nm (×10^3)” value ([1]; plate 2, mouse serum 10^-2, coat 1 μg MBPC.3/ml) was 381 and 429 and the “optical density (OD) ratio 492/620 nm (×10^3)” value ([1]; plate 2, mouse serum 10^-2, coat 5 μg MBPC.3/ml) was 1514 and 1344. The “optical density (OD) ratio 492/620 nm (×10^3)” value ([1]; plate 2, mouse serum 10^-2, coat 10 μg MBPC.3/ml) was 1540 and 1457, the “optical density (OD) ratio 492/620 nm (×10^3)” value ([1]; plate 2, mouse serum 10^-3, coat 0.5 μg MBPC.3/ml) was 47 and 82 and the “optical density (OD) ratio 492/620 nm (×10^3)” value ([1]; plate 2, mouse serum 10^-3, coat 1 μg MBPC.3/ml) was 54 and 65. For the same substance, the “optical density (OD) ratio 492/620 nm (×10^3)” value ([1]; plate 2, mouse serum 10^-3, coat 5 μg MBPC.3/ml) was 263 and 273, the “optical density (OD) ratio 492/620 nm (×10^3)” value ([1]; plate 2, mouse serum 10^-3, coat 10 μg MBPC.3/ml) was 334 and 291 and the “optical density (OD) ratio 492/620 nm (×10^3)” value ([1]; plate 2, mouse serum 10^-4, coat 1 μg MBPC.3/ml) was 15 and 17. For the same substance, the “optical density (OD) ratio 492/620 nm (×10^3)” value ([1]; plate 2, mouse serum 10^-4, coat 5 μg MBPC.3/ml) was 88 and 97, the “optical density (OD) ratio 492/620 nm (×10^3)” value ([1]; plate 2, mouse serum 10^-4, coat 10 μg MBPC.3/ml) was 132 and 188 and the “optical density (OD) ratio 492/620 nm (×10^3)” value ([1]; plate 3, mouse serum 10^-2, coat 0.5 μg MBPC.3/ml) was 204 and 198. The “optical density (OD) ratio 492/620 nm (×10^3)” value ([1]; plate 3, mouse serum 10^-2, coat 1 μg MBPC.3/ml) was 241 and 200, the “optical density (OD) ratio 492/620 nm (×10^3)” value ([1]; plate 3, mouse serum 10^-2, coat 5 μg MBPC.3/ml) was 636 and 630 and the “optical density (OD) ratio 492/620 nm (×10^3)” value ([1]; plate 3, mouse serum 10^-2, coat 10 μg MBPC.3/ml) was 639 and 664. For the same substance, the “optical density (OD) ratio 492/620 nm (×10^3)” value ([1]; plate 3, mouse serum 10^-3, coat 0.5 μg MBPC.3/ml) was 48 and 49, the “optical density (OD) ratio 492/620 nm (×10^3)” value ([1]; plate 3, mouse serum 10^-3, coat 1 μg MBPC.3/ml) was 50 and 53 and the “optical density (OD) ratio 492/620 nm (×10^3)” value ([1]; plate 3, mouse serum 10^-3, coat 5 μg MBPC.3/ml) was 159 and 163. The “optical density (OD) ratio 492/620 nm (×10^3)” value ([1]; plate 3, mouse serum 10^-3, coat 10 μg MBPC.3/ml) was 172 and 168, the “optical density (OD) ratio 492/620 nm (×10^3)” value ([1]; plate 3, mouse serum 10^-4, coat 0.5 μg MBPC.3/ml) was 22 and 21 and the “optical density (OD) ratio 492/620 nm (×10^3)” value ([1]; plate 3, mouse serum 10^-4, coat 1 μg MBPC.3/ml) was 22. For the same substance, the “optical density (OD) ratio 492/620 nm (×10^3)” value ([1]; plate 3, mouse serum 10^-4, coat 5 μg MBPC.3/ml) was 83 and 84, the “optical density (OD) ratio 492/620 nm (×10^3)” value ([1]; plate 3, mouse serum 10^-4, coat 10 μg MBPC.3/ml) was 85 and 84 and the “optical density (OD) ratio 492/620 nm (×10^3)” value ([1]; plate 4, mouse serum 10^-2, coat 0.5 μg MBPC.3/ml) was 495 and 468. For the same substance, the “optical density (OD) ratio 492/620 nm (×10^3)” value ([1]; plate 4, mouse serum 10^-2, coat 1 μg MBPC.3/ml) was 553 and 439, the “optical density (OD) ratio 492/620 nm (×10^3)” value ([1]; plate 4, mouse serum 10^-2, coat 5 μg MBPC.3/ml) was 1233 and 1336 and the “optical density (OD) ratio 492/620 nm (×10^3)” value ([1]; plate 4, mouse serum 10^-2, coat 10 μg MBPC.3/ml) was 1454 and 1340. The “optical density (OD) ratio 492/620 nm (×10^3)” value ([1]; plate 4, mouse serum 10^-3, coat 0.5 μg MBPC.3/ml) was 90 and 95, the “optical density (OD) ratio 492/620 nm (×10^3)” value ([1]; plate 4, mouse serum 10^-3, coat 1 μg MBPC.3/ml) was 83 and 88 and the “optical density (OD) ratio 492/620 nm (×10^3)” value ([1]; plate 4, mouse serum 10^-3, coat 5 μg MBPC.3/ml) was 299 and 297. The “optical density (OD) ratio 492/620 nm (×10^3)” value ([1]; plate 4, mouse serum 10^-3, coat 10 μg MBPC.3/ml) was 334 and 318, the “optical density (OD) ratio 492/620 nm (×10^3)” value ([1]; plate 4, mouse serum 10^-4, coat 0.5 μg MBPC.3/ml) was 28 and the “optical density (OD) ratio 492/620 nm (×10^3)” value ([1]; plate 4, mouse serum 10^-4, coat 1 μg MBPC.3/ml) was 27 and 21. For the same substance, the “optical density (OD) ratio 492/620 nm (×10^3)” value ([1]; plate 4, mouse serum 10^-4, coat 5 μg MBPC.3/ml) was 124 and 103, the “optical density (OD) ratio 492/620 nm (×10^3)” value ([1]; plate 4, mouse serum 10^-4, coat 10 μg MBPC.3/ml) was 133 and 113 and the “[3H] Thymidine Incorporation” value ([2]; Donor 1, Cand1) was 87000 cpm. For the same substance, the “[3H] Thymidine Incorporation” value ([2]; Donor 1, Cand2) was 100000 cpm, the “[3H] Thymidine Incorporation” value ([2]; Donor 1, PPD1) was 1300 cpm and the “[3H] Thymidine Incorporation” value ([2]; Donor 1, PPD2) was 3100 cpm. The “[3H] Thymidine Incorporation” value ([2]; Donor 2, Cand1) was 17000 cpm, the “[3H] Thymidine Incorporation” value ([2]; Donor 2, Cand2) was 11000 cpm and the “[3H] Thymidine Incorporation” value ([2]; Donor 2, PHA1) was 87000 cpm. For the same substance, the “[3H] Thymidine Incorporation” value ([2]; Donor 2, PHA2) was 95000 cpm, the “[3H] Thymidine Incorporation” value ([2]; Donor 2, PPD1) was 24000 cpm and the “[3H] Thymidine Incorporation” value ([2]; Donor 2, PPD2) was 27000 cpm. For the same substance, the “[3H] Thymidine Incorporation” value ([2]; Donor 3, Cand1) was 3200 cpm, the “[3H] Thymidine Incorporation” value ([2]; Donor 3, Cand2) was 1200 cpm and the “[3H] Thymidine Incorporation” value ([2]; Donor 3, PHA1) was 162000 cpm. For the same substance, the “[3H] Thymidine Incorporation” value ([2]; Donor 3, PHA2) was 154000 cpm, the “[3H] Thymidine Incorporation” value ([2]; Donor 3, PPD1) was 3900 cpm and the “[3H] Thymidine Incorporation” value ([2]; Donor 3, PPD2) was 3100 cpm. For the same substance, the block of fusion [3] was “able to block the fusion” and the “block of the infectivity of HIV on human colon cells” value [4] was “completely block”.
